Laboratory results as given in the supplement of paper PMC10567573.

B1: ACSBG2 (parent)
chain: TPMTIPEFFRESVNRFGTYPALAS

Variants of: B1
Test: protein stability index of a GFP-peptide fusion (GPS, HEK-293T) (PSI 1-6); higher = more stable
Settings: c terminus: a fixed tail appended
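Note: lentivirally expressed fusions sorted by FACS into six bins by GFP to DsRed ratio, PSI derived from sequencing read proportions per bin multiplied by bin number.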

Q: With TPMTIPEFFRESVNRFATYPALAS [G17A] as the variant, how does the protein stability index read?
A: The protein stability index was 1.78.

Q: For TPMTIPEFFRESVNRFCTYPALAS [G17C], which protein stability index is on record?
A: Its protein stability index is 1.43.

Q: With TPMTIPEFFRESVNRFDTYPALAS [G17D] as the variant, how does the protein stability index read?
A: The protein stability index was 2.76.

Q: With TPMTIPEFFRESVNRFETYPALAS [G17E] as the variant, how does the protein stability index read?
A: Its protein stability index is 2.35.

Q: For TPMTIPEFFRESVNRFFTYPALAS [G17F], which protein stability index is on record?
A: The protein stability index was 1.8.

Q: With TPMTIPEFFRESVNRFHTYPALAS [G17H] as the variant, how does the protein stability index read?
A: Its protein stability index is 2.28.

Q: With TPMTIPEFFRESVNRFITYPALAS [G17I] as the variant, how does the protein stability index read?
A: The protein stability index was 1.97.

Q: With TPMTIPEFFRESVNRFKTYPALAS [G17K] as the variant, how does the protein stability index read?
A: Its protein stability index is 2.27.

Q: Which protein stability index does the source give for TPMTIPEFFRESVNRFLTYPALAS [G17L] here?
A: Its protein stability index is 1.95.

Q: Which protein stability index does the source give for TPMTIPEFFRESVNRFMTYPALAS [G17M] here?
A: Its protein stability index is 2.17.

Q: Which protein stability index does the source give for TPMTIPEFFRESVNRFNTYPALAS [G17N] here?
A: Its protein stability index is 2.34.

Q: Which protein stability index does the source give for TPMTIPEFFRESVNRFPTYPALAS [G17P] here?
A: Its protein stability index is 2.22.

Q: With TPMTIPEFFRESVNRFQTYPALAS [G17Q] as the variant, how does the protein stability index read?
A: The protein stability index was 1.86.

Q: Which protein stability index does the source give for TPMTIPEFFRESVNRFRTYPALAS [G17R] here?
A: Its protein stability index is 2.42.

Q: For TPMTIPEFFRESVNRFSTYPALAS [G17S], which protein stability index is on record?
A: Its protein stability index is 2.62.

Q: For TPMTIPEFFRESVNRFTTYPALAS [G17T], which protein stability index is on record?
A: Its protein stability index is 1.91.

Q: Which protein stability index does the source give for TPMTIPEFFRESVNRFVTYPALAS [G17V] here?
A: Its protein stability index is 2.1.

Q: For TPMTIPEFFRESVNRFWTYPALAS [G17W], which protein stability index is on record?
A: The protein stability index was 2.12.

Q: With TPMTIPEFFRESVNRFYTYPALAS [G17Y] as the variant, how does the protein stability index read?
A: The protein stability index was 2.04.

Q: With TPMTIPEFFRESVNRFGAYPALAS [T18A] as the variant, how does the protein stability index read?
A: Its protein stability index is 1.89.

Q: Which protein stability index does the source give for TPMTIPEFFRESVNRFGCYPALAS [T18C] here?
A: The protein stability index was 2.35.

Q: Which protein stability index does the source give for TPMTIPEFFRESVNRFGDYPALAS [T18D] here?
A: Its protein stability index is 2.9.

Q: With TPMTIPEFFRESVNRFGEYPALAS [T18E] as the variant, how does the protein stability index read?
A: The protein stability index was 3.05.

Q: Which protein stability index does the source give for TPMTIPEFFRESVNRFGFYPALAS [T18F] here?
A: Its protein stability index is 1.9.

Q: Which protein stability index does the source give for TPMTIPEFFRESVNRFGGYPALAS [T18G] here?
A: Its protein stability index is 2.17.

Q: With TPMTIPEFFRESVNRFGHYPALAS [T18H] as the variant, how does the protein stability index read?
A: Its protein stability index is 2.1.

Q: With TPMTIPEFFRESVNRFGIYPALAS [T18I] as the variant, how does the protein stability index read?
A: Its protein stability index is 2.02.

Q: With TPMTIPEFFRESVNRFGKYPALAS [T18K] as the variant, how does the protein stability index read?
A: The protein stability index was 2.77.

Q: Which protein stability index does the source give for TPMTIPEFFRESVNRFGLYPALAS [T18L] here?
A: The protein stability index was 2.31.

Q: For TPMTIPEFFRESVNRFGMYPALAS [T18M], which protein stability index is on record?
A: Its protein stability index is 1.74.

Q: With TPMTIPEFFRESVNRFGNYPALAS [T18N] as the variant, how does the protein stability index read?
A: Its protein stability index is 2.35.

Q: For TPMTIPEFFRESVNRFGPYPALAS [T18P], which protein stability index is on record?
A: The protein stability index was 2.08.

Q: Which protein stability index does the source give for TPMTIPEFFRESVNRFGQYPALAS [T18Q] here?
A: Its protein stability index is 2.02.

Q: For TPMTIPEFFRESVNRFGRYPALAS [T18R], which protein stability index is on record?
A: The protein stability index was 2.17.

Q: For TPMTIPEFFRESVNRFGSYPALAS [T18S], which protein stability index is on record?
A: The protein stability index was 2.06.

Q: Which protein stability index does the source give for TPMTIPEFFRESVNRFGVYPALAS [T18V] here?
A: Its protein stability index is 2.29.

Q: With TPMTIPEFFRESVNRFGWYPALAS [T18W] as the variant, how does the protein stability index read?
A: Its protein stability index is 1.49.

Q: For TPMTIPEFFRESVNRFGYYPALAS [T18Y], which protein stability index is on record?
A: The protein stability index was 2.09.

Q: Which protein stability index does the source give for TPMTIPEFFRESVNRFGTAPALAS [Y19A] here?
A: Its protein stability index is 2.82.

Q: Which protein stability index does the source give for TPMTIPEFFRESVNRFGTCPALAS [Y19C] here?
A: Its protein stability index is 2.19.

Q: For TPMTIPEFFRESVNRFGTDPALAS [Y19D], which protein stability index is on record?
A: Its protein stability index is 3.44.

Q: With TPMTIPEFFRESVNRFGTEPALAS [Y19E] as the variant, how does the protein stability index read?
A: Its protein stability index is 3.37.

Q: With TPMTIPEFFRESVNRFGTFPALAS [Y19F] as the variant, how does the protein stability index read?
A: The protein stability index was 2.52.

Q: For TPMTIPEFFRESVNRFGTGPALAS [Y19G], which protein stability index is on record?
A: The protein stability index was 2.73.

Q: With TPMTIPEFFRESVNRFGTHPALAS [Y19H] as the variant, how does the protein stability index read?
A: The protein stability index was 2.77.

Q: For TPMTIPEFFRESVNRFGTIPALAS [Y19I], which protein stability index is on record?
A: The protein stability index was 2.78.

Q: Which protein stability index does the source give for TPMTIPEFFRESVNRFGTKPALAS [Y19K] here?
A: The protein stability index was 2.8.

Q: Which protein stability index does the source give for TPMTIPEFFRESVNRFGTLPALAS [Y19L] here?
A: The protein stability index was 2.38.

Q: Which protein stability index does the source give for TPMTIPEFFRESVNRFGTMPALAS [Y19M] here?
A: The protein stability index was 2.77.

Q: For TPMTIPEFFRESVNRFGTNPALAS [Y19N], which protein stability index is on record?
A: The protein stability index was 2.84.

Q: For TPMTIPEFFRESVNRFGTPPALAS [Y19P], which protein stability index is on record?
A: The protein stability index was 2.87.

Q: With TPMTIPEFFRESVNRFGTQPALAS [Y19Q] as the variant, how does the protein stability index read?
A: The protein stability index was 2.91.

Q: For TPMTIPEFFRESVNRFGTRPALAS [Y19R], which protein stability index is on record?
A: The protein stability index was 3.17.

Q: For TPMTIPEFFRESVNRFGTSPALAS [Y19S], which protein stability index is on record?
A: The protein stability index was 2.54.

Q: For TPMTIPEFFRESVNRFGTTPALAS [Y19T], which protein stability index is on record?
A: The protein stability index was 2.76.

Q: With TPMTIPEFFRESVNRFGTVPALAS [Y19V] as the variant, how does the protein stability index read?
A: The protein stability index was 2.71.

Q: Which protein stability index does the source give for TPMTIPEFFRESVNRFGTWPALAS [Y19W] here?
A: Its protein stability index is 2.38.

Q: Which protein stability index does the source give for TPMTIPEFFRESVNRFGTYAALAS [P20A] here?
A: Its protein stability index is 1.89.

Q: For TPMTIPEFFRESVNRFGTYCALAS [P20C], which protein stability index is on record?
A: The protein stability index was 1.97.

Q: For TPMTIPEFFRESVNRFGTYDALAS [P20D], which protein stability index is on record?
A: The protein stability index was 2.67.

Q: Which protein stability index does the source give for TPMTIPEFFRESVNRFGTYEALAS [P20E] here?
A: Its protein stability index is 2.4.

Q: For TPMTIPEFFRESVNRFGTYFALAS [P20F], which protein stability index is on record?
A: Its protein stability index is 2.49.

Q: Which protein stability index does the source give for TPMTIPEFFRESVNRFGTYGALAS [P20G] here?
A: Its protein stability index is 2.3.

Q: Which protein stability index does the source give for TPMTIPEFFRESVNRFGTYHALAS [P20H] here?
A: The protein stability index was 1.92.

Q: For TPMTIPEFFRESVNRFGTYIALAS [P20I], which protein stability index is on record?
A: Its protein stability index is 2.34.

Q: For TPMTIPEFFRESVNRFGTYKALAS [P20K], which protein stability index is on record?
A: Its protein stability index is 2.39.

Q: For TPMTIPEFFRESVNRFGTYLALAS [P20L], which protein stability index is on record?
A: The protein stability index was 2.63.

Q: Which protein stability index does the source give for TPMTIPEFFRESVNRFGTYMALAS [P20M] here?
A: Its protein stability index is 2.87.

Q: With TPMTIPEFFRESVNRFGTYNALAS [P20N] as the variant, how does the protein stability index read?
A: The protein stability index was 2.11.

Q: Which protein stability index does the source give for TPMTIPEFFRESVNRFGTYQALAS [P20Q] here?
A: Its protein stability index is 1.71.

Q: Which protein stability index does the source give for TPMTIPEFFRESVNRFGTYRALAS [P20R] here?
A: Its protein stability index is 2.18.

Q: With TPMTIPEFFRESVNRFGTYSALAS [P20S] as the variant, how does the protein stability index read?
A: The protein stability index was 2.04.

Q: Which protein stability index does the source give for TPMTIPEFFRESVNRFGTYTALAS [P20T] here?
A: The protein stability index was 1.48.

Q: Which protein stability index does the source give for TPMTIPEFFRESVNRFGTYVALAS [P20V] here?
A: The protein stability index was 2.41.

Q: Which protein stability index does the source give for TPMTIPEFFRESVNRFGTYWALAS [P20W] here?
A: Its protein stability index is 2.11.

Q: For TPMTIPEFFRESVNRFGTYYALAS [P20Y], which protein stability index is on record?
A: Its protein stability index is 1.56.
